Measured values from paper PMC9002140 (Computational and Structural Biotechnology Journal, 2022).

How the values were obtained:
[1] = target: T1, thermolysin from B. thermoproteolyticus Rokko (Bacillus thermoproteolyticus Rokko, UniProt P00800 233-548); experiment: cell-based or functional assay
T1 sequence (looked up): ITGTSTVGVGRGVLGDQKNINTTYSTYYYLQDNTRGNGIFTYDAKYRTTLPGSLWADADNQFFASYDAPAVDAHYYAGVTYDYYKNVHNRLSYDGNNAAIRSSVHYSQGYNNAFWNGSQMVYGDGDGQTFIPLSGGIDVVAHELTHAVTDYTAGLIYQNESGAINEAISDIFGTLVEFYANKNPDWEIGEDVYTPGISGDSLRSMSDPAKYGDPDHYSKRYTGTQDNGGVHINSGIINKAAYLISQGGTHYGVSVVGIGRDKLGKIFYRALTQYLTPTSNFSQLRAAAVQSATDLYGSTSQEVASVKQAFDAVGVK

[2] = target: T2, aureolysin isoform I, mature catalytic domain (A209–E509) (Staphylococcus aureus (strain V8-BC10), UniProt P81177 209-509); experiment: enzyme inhibition assay
T2 sequence (looked up): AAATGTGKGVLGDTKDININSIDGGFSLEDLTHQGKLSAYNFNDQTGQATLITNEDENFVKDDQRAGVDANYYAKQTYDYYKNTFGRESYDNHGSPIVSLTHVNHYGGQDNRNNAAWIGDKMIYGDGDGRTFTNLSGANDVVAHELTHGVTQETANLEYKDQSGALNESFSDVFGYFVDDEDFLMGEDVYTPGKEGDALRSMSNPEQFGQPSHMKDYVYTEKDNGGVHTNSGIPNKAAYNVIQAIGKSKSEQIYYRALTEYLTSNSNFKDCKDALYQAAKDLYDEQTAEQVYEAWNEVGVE

Binder | inhibition of thermolysin, against the wild type [1] [fold] | Ki [2] [nM]
R58E-IMPI (natural protein, Galleria mellonella) GMSIVLICNGGHEYYECGGACDNVCADLHIQNKTNCPIINIECNDKCYCEDGYARDVNGKCIPIKDCPKIRS | ~200 | 
I57F-IMPI (natural protein, Galleria mellonella) GMSIVLICNGGHEYYECGGACDNVCADLHIQNKTNCPIINFRCNDKCYCEDGYARDVNGKCIPIKDCPKIRS |  | 346
